Data taken from the nanobody polyreactivity screen of Harvey et al. (2022).

Assay: yeast display, Sf9 membrane polyspecificity reagent, FACS + sequencing; frameworks hold sequencing errors
Outline: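 Polyreactivity labels are assigned by the sorting gate from which each nanobody was recovered. The gates were low and high (top ~1%), set on anti-HA fluorescence for expression and streptavidin fluorescence for reagent binding. Before sorting, galactose-induced (36–48 hours) yeast display cells were stained for 1 hour at 4 °C with 10% biotinylated, detergent-solubilized Sf9 membrane reagent.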

| Sequence | polyreactivity (PSR sort gate) |
| --- | --- |
| QVQLVESGGGLVQAGGSLRLICAASGFIFDWNTMGWYRQAPGKEREMVAAISWSGAGTYYADSVKGRFTISRDNAKNTVYLQMNSLKPEDTAVYYCNAVRANGQASQEGEYWGQGTQVTVSS | high polyreactivity |
| QVQLVESAGGLVQAGGSLRLSCAASGSTFLIYALGCYRHAPGKERELVAAITVSGGDTYYADSVKGRFTISRDNAKNTVYLQMNSLKPEDTAVYYCAAEGGNDYSSVDAGISYDYWGQGTKVTVSS | low polyreactivity |
| QVQLVESGGCLVQAGGSLRLSCAASGRIFYRYAMGWSRQAPGKVRELVATISWSGGSTYYAHSVKGRFTISRDNAKYTVYLQLNSLKPEDTAVYYCNAAYGNVSRVYYLIEHDYWGQGTQVTVSS | high polyreactivity |
| QVQLVESGGGLVQAGGSLRLSCAASGIIFSQYAMGWYRQAPGKERELVAGITRSGGSTYYADSVKGRFSISRDNAKNTVYLQMNSLKPDDTAVYYCAAVQRYEYGYWGQGTQVTVSS | high polyreactivity |
| QVQHVESGGGLVQAGGSLRLICAASGITFYFNAMGWYRQAPGKERELVAAISRPGGSTYYADSVKGRFTISRDNAKNTVYLQMNSLKPEDTAVYYCAAEAYFELSGGGLEYGYDYWGQGTQVTVSS | high polyreactivity |
| QVQLVESGGGLVQAGGSLRLSCAASGSIVDWYVMGWYRQAPGKERELVAAITSTGSTYYADSVKGRFTISRDNAKNTVYLQMNSLKPEDTAVYYCATSFYVYPTYYIMDYWGQGTQVTVSS | low polyreactivity |
| QVQLVESGGGLVQAGGSLRLTCAASGSTFADYAMGWYRQAPGKERELVAAITGDGGNTYYADSVKGRFTISRDNAKNTVYLQMNSLKPEDTAVYYCAAEHETGAYYYWGLGTQVTVSS | high polyreactivity |
| QVQLVESGGGLVQAGGSLRLSCAASGRTIRHNAMGWYRQARGKERELVAAISRSGGSTYYADSVKGRFTISRDNAKNTVYLQMNSLKPEDTAVYYCAAGYHIIYTPEYYYWGQGTQVTVSS | high polyreactivity |
| QGQLVESGGGLVQAGGSLRLSCAASGSTFLHYAMGWYRQAPGKERELVAAISRRGGRTYYADSVKGRFTISRDNAKNTVYLQMNRLKPEDTAVYNCAVDGIRDGYWIFYYWGQGTQVTVSS | low polyreactivity |
| QVQLVESGGGLVQAGGSLRLSCAASGRIIRSYAMGRYRQAPRKERELVDAITTGGRTYYADSVKGRFTISRDNAKNTVYLQMNSLKPEDTAVYYCNSALVYRGTDTNDYWGQGTQVTVSS | high polyreactivity |
| QGQLVESGGGLVQAGGSRRLSCAASGFIYFNAMGWSRQAPGKEREMVASISYSGGSTYYADSVKGRFTISRDNAKNTVYLQMNSLKPEDTAVYYCAKAFIEPGYKYDSWGQGTQVTVSS | high polyreactivity |
| QVQLEESGGGLVQAGGSLRLSCAASGIIIRYYAMGWYRQAPRKERELVDSITARSGSTYYADSVKGRFSISRDYAKNTVYFQMNSLKPEDTAVYYCAKSGKPARYYYWGQGTQVTVSS | high polyreactivity |
| QVQLVESGGGLVQAGGSLRLSCAASGRIITRYAMGWYRQAPGKERELVAAISSGGSTYYADSVKGRFTISRDNAKNTVYLQMNSLKPEDTAVYYCARGWSGAYAGGYWGQGTQVTVSS | high polyreactivity |
| QVQLVESGGGLVQAGGSLRLSCAASGRIFGFNTMGWYRQAPGKERELVAAISRNGGSTYYADSVKGRFTISRDNAKNTVYLEMNSLKPEDTAVYYCAKRWYPYSYDYWGQGTQVTVSS | high polyreactivity |
| QVQLVESGGGLVQAGGSLRLSCAASGSIIGVNAMGWYRQAPGKERELVAAMSSTGGSTYYADSVKGRFSISRDNAKNTVFLQMNRLKPEDTAVYYCHTDYSKSIGDGYAGFDYWGQGTQVTVSS | low polyreactivity |
| QVQLVESGGGLVQAGGSLRLSCAASGSIFTHNAMGWYRQAPGNERELVAAISSGGSTNYADSVKGRFTISRDNAKNTVYLQMNSLKPEDTAVYYCAKSIDGWYWRRRRYDYWGQGTQVTVSS | low polyreactivity |
| QVQLVESGGGLVQAGGSLRLSCAASGRTFKDYAMGWYRQAPGKERELVAGINGSGGSTYYADSVKGRFTISRDYAKNTVYLQMNSLKPEDTAVYYCNADFGYWWDGRRYDYWGQGTQVTVSS | low polyreactivity |
| QVQLVESGGGLVQAGGSLRLSCAASGSIFAGYAMGLYRQAPGKERELVAAISRSGDSTYYADSVKGRFTISRDNAKNTVYLQMNSLKPEDTAVYYCAAVLSYSYVRYNYWGQGTQVTVSS | high polyreactivity |
| QVQLVESGGGLVQAGGSLRLSCAASGSIFYLYAMGLYRQAPGKERELVAAITSIGGSTYADSVKGRFTISRDNAKNTVYLQMNSLKPEDTAVYYCNTDEYPLTVQVQYYYWGQGTQVTVSS | low polyreactivity |
| QVQLVESGGGLVQAGGRLRLSCAASGSTFRSNVMGRYRQATGKERELVAAITSGSITNYADSVKGRFTISRDNAKNTVYLQMNSLKPEDTAVYYCAVETYVYGRMGYLGQGTQVTVSS | high polyreactivity |
| QVQLVESGGGLVQAGGSLRLSCAASGSTNGRYAMGWYRQAPGKERELVAAISYSGGSTYYADTVKGRFTISRDNAKNTVYLQMNSLKPEDTAVYYCAAQYVRKYRVSRGYNYWGQGTQVTVSS | high polyreactivity |
| QVQLVESGGGLVQAGGSLRLSCAASGSISAPNAMGWYRQAPGKERELVATINSGGRTNYADSVKGRFTISRDNSKNTVYLQMNSLKPEDTAVYYCNTVFRGAYTYGDVSKYDYWGQGTQVTVSS | low polyreactivity |

| Sequence | polyreactivity (PSR sort gate) |
| --- | --- |
| QVQHVESGGGLVQAGGSLRLSCAASGLTLYGYTMGWYRQAPGKERELVPTITTGGDSTYYADSVKGRFTISRDNAKNTVYLQMTSLKPEDTAVYYCSAFSYGWDYSYDYWGQGTQVTVSS | low polyreactivity |
| QVQLVESGGGLVQAGGSLRLSCAASGRTFFDNAMGWYRQAPGKEREFVAAISYNGGSTYFADSVKGRFTISRDNAKNTVYLQMNSLKPEDTAVYYCAADPNYGYDYWGQGTQVTVSS | low polyreactivity |
| QVQLVESGGGLVQAGGSLRLSCAASGSIITWNAMGWYRQAPGKERELVAALDWDGGSTYYADSVKGRFTISRDNAKNTVYFQMNRLKPEDTAVYYCAATYGWYTGRYPSGHYYYWGQGTQVTVSS | low polyreactivity |
| QVQLVESGGGLVQAGGSLRLSCAASGSTFSVNAMGRYRQATGKERELVATISGGITNYADSVKGRFTISRDNAKNTVYLQMNSLKPEDTAVYYCNTAYRHIWVTWAAYDYWGQGTQVTVSS | low polyreactivity |
| QVQLVESCGGLVQAGGSLRLSCADSGRTIYVNAMGCYRQAPGKERELVARITSGGSTYYADSVKGRFTISRDNAKNTVYLQMNSLTPEDTAVLYCAKKYIGYQDWIHSTRRYDYWGQGTQVTVSS | low polyreactivity |
| QVQLVESGGGLVHAGGSLRLSCAASGSIFVPYALGWYRQAPGKDRELVAAMTSSGSSTYYADSVKGRFTISRDNAKNTVYLQMNSLKPDDTAGYYCAADYFDWEGNGYYYWGQGNQVTVSS | high polyreactivity |
| QVQLVESGGGLVQAGGSLRLSCAASGSTFTVYAMGWYRQAPGKERELVAAISSSTGSTYYADSVKGRFTISRDNAKNTVYLQMNSLKPEDTAVYYCAADVYQVTTSSYTEFEYWGQGTQVTVSS | low polyreactivity |
| QVQLVESGGGLVQAGGSLRLSCAASGLTFDAYAMGWYRHAPRKERELVAAISWSGGSTYYADSVKGRFTISRDNAKNTVYLQMNSLKPEDTAVYYSNARYAQFRFWGQGTQVTVSS | high polyreactivity |
| QVQLVESGGGLVQAGGSLRLSCAASGLTFEKYAMGWYRQAPGKERELVAAISQDGGSTYYADSVKGRFTISRDNAKNTVYLQMNSLKPEDTAVYYCAAEDPDSWLPWHLYDYWGQGTQVTVSS | low polyreactivity |
| QVQLVESGGGLVQAGGSLRLSCAASGFIFSRYAMGWYRQAPGKERELVAAITSGGGTYSADSVKGRFTISRDNAKNTVYLQMNSLKPEDTAVYYCAAGYGPTSTSSVRITAGDHWGQGTQVTVSS | low polyreactivity |
| QVQLVESGGGLVQAGGSLRLSCAASGSTFGKNAMGWYRQAPRKERELVAAISRSGGRTYYADSVKGRFTISRDNAKNTVYLQMNSLKPEDTAVYYCAREWYTAGSGDYWGQGTQVTVSS | low polyreactivity |
| QVQLVESGGGLVQAGGSLRLSCDASGLTFGWNAMGWSRQAPGKERELVAALSYNGVSTHYADTVKGRFTISRDNAKNTVYLQMNSLKPEDTAVYYCAARALTWPYGGTAPRLYNYWGQGTQVTVSS | low polyreactivity |
| QVQLVESGGGLVQAGGSLRLSCAASGITFDHYAMGWYRQAPGKERELVAAITSGGNTNYADSVKGRFTISRDNAKNTVYLQMNILKPVDTAVYYCNARYDVWYYYWGQGTQVTVSS | high polyreactivity |
| QVQLVESAGGLVQAGGSLRLSSAASGRIFKYNAMGWYRQAPGKERELVAAISSSGARTYYADSVKGRFTISRDNAKNTVYLQMNSLKPEDTAVYYCAVYYYDFTSTEYGYWGLGTQVTVSS | high polyreactivity |
| QVQLVESGGGLVQAGGSLRLSCAASGRIFGRYAMGWYRQAPGKERELVATITYTGGSTYYADSVKGRFTISRDNAKNTVYLQMNSLKPEDTAVYSCNAVKPVSRTYDSSYYWGPGTQVTVSS | high polyreactivity |
| QVQLVESGGGLVQAGGSLRLSCAASGRIFYHNARGWYRQAPGKERELVAAIYSTGGSTYYADSVKGRFTISRDNAKNTVYLQMNSLKPEDTAVYYCATQYFRKYGYDYWGKGTQVTVSS | low polyreactivity |
| QVQLVESWGGLVQAGGSLRLSCAASGSTFYRYAMGWYRQAPGKERELVAAISRSGGNTFYADSVKGRFTISRDNAKNTVYLQMNSLKQEDTAVYYCAAEAHLACYYRYYGGYGYDYWGQGTQVTVSW | high polyreactivity |
| QVQLVESGGGLVQAGGSLRLSCAASGRIFEHNAMGWYRQAPGKEREFVAAISSSGGSTYYADSVKGRFTISRDNAKNTVYLQMNSLKPEDTAVYYCNAGSTYYERNYWGQGTQVTVSS | low polyreactivity |
| QVQLVESGGGLVQAGGSLRLSCAASGRIFVVYAMGWYRQAPGKERELVAAITYGGGSTHYADSVKGRFTISRDNAKNTVYLQMNSLKPEDTAVYYCAADLFYHSYGYEYWGQGTQVTVSS | low polyreactivity |
| QVQLVESGGGLVQAGGSLRLSCAASGLIFYAYAMGWYRPAPGKERELVAAITSGSGTNYADSVKGRFTISRDNAKNTVYLQMNSLKPEDTAVYYCNAETYGLVPYYIYHYDFDYWGQVTQVTVSS | high polyreactivity |
| QVQLVESGGGLVQAGGSLRLSCAASGSIFIYYAMGWYRQAPGKEMELVAAISSSGGSTYYADSVKGRFTISRDNAKNTVYLQMNSLKPEDTAVYYCAAAYGGRLRYTAGYYWGQGTQVTVSS | high polyreactivity |
